The target of one series is T1, GcL (Parageobacillus caldoxylosilyticus, UniProt A0A023DFE8, A156S).
T1 construct: gene GCA01S_030_00190; expressed in E. coli BL21(DE3)-pGro7/GroEL with CoCl2; bimetallic Fe/Co centre; dimer
The series is described as follows: 4-nitrophenolate release at […] nm. Type of series: biochemical. The following applies: 50 mM HEPES pH 8.0 (methods; table note pH 8.3), 150 mM NaCl, CoCl2, 25 °C.

Substrate in series [1]: CCCC(=O)N[C@H]1CCOC1=O
The series is described as follows: purified protein. The note with it: pH 8.3, 25 °C, 2.5 mM bicine, 150 mM NaCl, 0.2 mM CoCl2. Type of series: biochemical, Parageobacillus caldoxylosilyticus.

Substrate in series [2]: CCCCCC(=O)N[C@H]1CCOC1=O
The series is described as follows: purified protein. Type of series: biochemical, Parageobacillus caldoxylosilyticus. The note with it: pH 8.3, 25 °C, 2.5 mM bicine, 150 mM NaCl, 0.2 mM CoCl2.

Substrate in series [3]: CCCCCCCC(=O)N[C@H]1CCOC1=O
The series can be described thus: purified protein. Type of series: biochemical, Parageobacillus caldoxylosilyticus. The following applies: pH 8.3, 25 °C, 2.5 mM bicine, 150 mM NaCl, 0.2 mM CoCl2.

Numbering of substitutions follows the chain as printed. In names and notes the source's numbering stands.

A word on the Km: it is the concentration of substrate that gives half-maximal velocity. In general, kcat refers to the maximal rate divided by the concentration of active sites. One may read the kcat/Km as the second-order rate constant that governs catalysis at low substrate concentration.

T1 sequence (A0A023DFE8 entry or part of it A156S): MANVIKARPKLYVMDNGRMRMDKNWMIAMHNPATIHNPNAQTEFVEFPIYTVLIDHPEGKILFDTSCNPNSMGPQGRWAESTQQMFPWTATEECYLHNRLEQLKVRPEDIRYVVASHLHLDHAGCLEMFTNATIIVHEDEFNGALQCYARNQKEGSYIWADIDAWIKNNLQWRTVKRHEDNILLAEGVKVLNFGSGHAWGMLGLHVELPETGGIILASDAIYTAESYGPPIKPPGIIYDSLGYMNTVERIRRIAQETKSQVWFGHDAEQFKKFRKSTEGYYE

Consider `CCOP(=O)(OCC)Oc1ccc([N+](=O)[O-])cc1` [Paraoxon, paraoxon ethyl], for which, on GcL, the Km is 964 ± 136 µM.

B1: GcL (Parageobacillus caldoxylosilyticus NBRC 107762; Y222F) (protein)
chain: MANVIKARPKLYVMDNGRMRMDKNWMIAMHNPATIHNPNAQTEFVEFPIYTVLIDHPEGKILFDTSCNPNSMGPQGRWAESTQQMFPWTATEECYLHNRLEQLKVRPEDIRYVVASHLHLDHAGCLEMFTNATIIVHEDEFNGALQCYARNQKEGAYIWADIDAWIKNNLQWRTVKRHEDNILLAEGVKVLNFGSGHAWGMLGLHVELPETGGIILASDAIFTAESYGPPIKPPGIIYDSLGYMNTVERIRRIAQETKSQVWFGHDAEQFKKFRKSTEGYYE
notes: expressed in E. coli BL21(DE3)-pGro7/GroEL with CoCl2; bimetallic Fe/Co centre; dimer
For B1, in “purified protein [1]”, the Km is 758 ± 275 µM, the catalytic constant (kcat) came to 0.79 ± 0.15 s⁻¹ and the catalytic efficiency (kcat/Km) stood at 1040 ± 430 M⁻¹ s⁻¹. For the same molecule, in the series “purified protein [2]”, the Km is 92.7 ± 36.7 µM, the kcat came to 5.01 ± 0.46 s⁻¹ and the kcat/Km was found to be 54100 ± 21900 M⁻¹ s⁻¹.

B2: GcL (Parageobacillus caldoxylosilyticus NBRC 107762; G155P) (protein)
chain: B1 chain with G155P, F222Y
notes: as for B1
In the case of B2, in “purified protein [2]”, the Km was found to be 563 ± 150 µM, the kcat turned out to be 2.44 ± 0.31 s⁻¹ and the kcat/Km was found to be 4340 ± 1280 M⁻¹ s⁻¹. For the same molecule, in the series “purified protein [3]”, the Km stood at 8.22 ± 2.92 µM, the kcat turned out to be 1.44 ± 0.09 s⁻¹ and the kcat/Km turned out to be 175000 ± 63000 M⁻¹ s⁻¹.

B3: GcL (Parageobacillus caldoxylosilyticus NBRC 107762; A156S) (protein)
chain: B1 chain with A156S, F222Y
notes: as for B1
Consider B3, for which, in the series “purified protein [1]”, the Michaelis-Menten constant (Km) is 475 ± 103 µM, the turnover number (kcat) is 24.9 ± 2.52 s⁻¹ and the specificity constant (kcat/Km) is 52400 ± 12500 M⁻¹ s⁻¹.

B4: GcL (Parageobacillus caldoxylosilyticus NBRC 107762; I236M) (protein)
chain: B1 chain with F222Y, I236M
notes: as for B1
As for B4, in the series “purified protein [2]”, the Km was found to be 2.38 ± 0.68 µM, the kcat came to 0.95 ± 0.04 s⁻¹ and the kcat/Km came out at 399000 ± 115000 M⁻¹ s⁻¹.

B5: GcL (Parageobacillus caldoxylosilyticus NBRC 107762; A156G) (protein)
chain: B1 chain with A156G, F222Y
notes: as for B1
As for B5, in “purified protein [3]”, the Michaelis-Menten constant (Km) was 19.34 ± 3.28 µM, the kcat is 7.97 ± 0.33 s⁻¹ and the catalytic efficiency (kcat/Km) amounted to 412000 ± 72000 M⁻¹ s⁻¹.

B6: GcL (Parageobacillus caldoxylosilyticus NBRC 107762; D121N) (protein)
chain: B1 chain with D121N, F222Y
notes: as for B1
Consider B6, for which, in the series “purified protein [1]”, the Michaelis-Menten constant (Km) worked out at 41.0 ± 9.14 µM, the catalytic constant (kcat) is 1.74 ± 0.1 s⁻¹ and the catalytic efficiency (kcat/Km) amounted to 42500 ± 9800 M⁻¹ s⁻¹. Further, in “purified protein [2]”, the Km came out at 13.0 ± 6.16 µM, the kcat turned out to be 2.6 ± 0.24 s⁻¹ and the kcat/Km is 200000 ± 96000 M⁻¹ s⁻¹.

For the origin of these results see publication PMC11423328, “Catalytic Redundancies and Conformational Plasticity Drives Selectivity and Promiscuity in Quorum Quenching Lactonases” (JACS Au, 2024).
